Source: the supplement of paper PMC10126150
± gives the standard deviation of the averaged measurements.

Test system: ATP
Assay: switch fluorescence ratio, 500 uM ATP over buffer (Cy3 cluster intensity, sum of 5 cycles each) (fold (ratio)); higher = stronger signal-on switching upon ATP binding; sequences stand for … in TCGTCGGCAGCGTCAGATGTGTATAAGAGACAGTTTTTTTTTTTTTTTTTTTTTTTTT…TC
Details: aptamer strand: ATP DNA aptamer (quencher-CACCTGGGGGAGTATTGCGGAGGAAGG + anchor), 100 nM annealed; ATP concentration: 500 uM
Method in brief: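 Cy3-labelled switching-strand clusters on a modified Illumina MiSeq flow-cell were annealed to 100 nM quencher-labelled ATP aptamer, imaged in selection buffer, then imaged after 15 min with 500 uM ATP at 22 °C. Five buffer/ATP cycles ran, with NaOH stripping and re-annealing between them. The fluorescence ratio is summed target-cycle over summed buffer-cycle Cy3 intensity per cluster, averaged per switch-domain sequence. Clusters outside 100-1000 RFU were excluded.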
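Note: ATP exposure 15 min at 22 °C before imaging.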

Sequence | switch fluorescence ratio
TCGAGAATGG | 0.952 ± 0.017
CATTTGGATT | 1.04 ± 0.012
CATTCAGTCG | 1 ± 0.026
GGGCGATGCA | 1.02 ± 0.028
AGTGTTAGTT | 1 ± 0.024
TTTAAGCAGA | 1.04 ± 0.041
GATGGTTATC | 0.961 ± 0.026
GGATGGTGAG | 0.972 ± 0.011
GAACATTTCG | 1 ± 0.021
TAACTCGAAC | 1.04 ± 0.023
AGATCGCTTT | 1.02 ± 0.029
GCTGATATCC | 1.01 ± 0.048
GGTGCAAGTT | 1.02 ± 0.042
TAAGGGCGTT | 0.994 ± 0.022
GGGGCCAGGG | 1.04 ± 0.054
GCTAACGTGC | 0.993 ± 0.046
TCGGCTATTT | 1.03 ± 0.019
ACTTGAGGGT | 1.05 ± 0.094
TAGGAAAGTG | 1.03 ± 0.054
ATTATGAACC | 1.04 ± 0.016
ATGAGAACTC | 1.024 ± 0.0051
TTAAATAATT | 0.992 ± 0.019
TTGATTGGCG | 1.07 ± 0.058
GGGATTCCGT | 1.05 ± 0.042
TATGCTTTAA | 1.01 ± 0.024

Sequence | switch fluorescence ratio
TTCGCAACAG | 2.19 ± 0.67
ATAAGACTGG | 0.9819 ± 0.0053
TTGGTTTGCG | 0.962 ± 0.017
ATCGTATGGT | 1 ± 0.023
GGATGCCAGT | 0.998 ± 0.013
AACGGGGGCA | 0.925 ± 0.025
CGCGGTTTGT | 0.988 ± 0.017
TGTAGTGAGT | 0.959 ± 0.037
TAAAGCTTCG | 1.27 ± 0.041
AAGCTGAAGT | 1.03 ± 0.035
AGGGTCAATC | 1.04 ± 0.05
AATTTGACCC | 0.9966 ± 0.0026
CTGGTGGTGG | 0.986 ± 0.075
GTGATGGGGG | 1.01 ± 0.051
TGTTATAATC | 1.08 ± 0.064
ACTGATCTGA | 0.987 ± 0.04
TTGTGGTTGT | 0.966 ± 0.016
AAGGGGAATT | 1.01 ± 0.049
GGATGGTGTG | 0.977 ± 0.037
CAATTCGATA | 1.02 ± 0.025
GAGTGAAAGT | 0.99 ± 0.023
AAAAGGAAAG | 0.957 ± 0.037
AGGGGTTATA | 1.01 ± 0.024
TTCGCAGTCA | 1.03 ± 0.052
GTAATAGTTG | 1.01 ± 0.022

Sequence | switch fluorescence ratio
TGGAGGGGCA | 1.03 ± 0.022
TTTCGAACAT | 1.03 ± 0.068
AGTTTTTCAA | 0.9984 ± 0.0073
GATGGGAAAT | 1 ± 0.012
AATCGGGGGT | 1.002 ± 0.0097
TCCGGGTGTA | 1.14 ± 0.22
TTGTTTCTTG | 0.981 ± 0.049
TACGGTCAGC | 1.03 ± 0.016
CGGGATTGGG | 0.96 ± 0.061
AGGGCGGTAT | 1.0286 ± 0.00059
ACGCAACGCC | 1.6634 ± 0.0003
TCAGCGTTTC | 1.05 ± 0.027
TTTTTGTGAA | 0.995 ± 0.033
TTAATGTTCA | 1 ± 0.031
AAATACGTCT | 1.09 ± 0.096
TAAAGGGGGG | 1.01 ± 0.047
GCTGTTGAAT | 1.02 ± 0.041
TGGTTATGGT | 0.992 ± 0.037
TTTTGTGGAC | 0.996 ± 0.034
AGTATCTCTT | 1.0161 ± 4.4e-05
TCCAATATGG | 1.05 ± 0.094
AAATTTGGGA | 0.969 ± 0.027
CACGGCTTGG | 0.9744 ± 0.0044
AAAGGTGCCA | 1.05 ± 0.015
TAAGTTGGCT | 0.958 ± 0.023

Sequence | switch fluorescence ratio
TGAAGTGAAC | 1.17 ± 0.22
GAGTTCGGGA | 1.02 ± 0.029
TGTCCTTAAA | 0.9898 ± 0.0039
TTAGTCTGAT | 1 ± 0.038
TTCCATATGT | 0.975 ± 0.021
AACTTTTAAT | 1.019 ± 0.0032
GCTTGGCTCG | 1.01 ± 0.027
TCATGTGACT | 1.02 ± 0.053
ATTTGGTGCA | 1.01 ± 0.056
TTTTATAGTT | 1 ± 0.023
CGGCAGTAAT | 1.471 ± 0.003
TGTTTATGAC | 0.9847 ± 0.0081
GACATAGTTT | 1.021 ± 0.01
CAGGGTAACT | 1.04 ± 0.066
TGGCGGCTTT | 1.01 ± 0.041
ACAGTTATTC | 1.02 ± 0.048
CTCAACACCT | 1.35 ± 0.048
TAAAAACTGT | 1.02 ± 0.034
GGGTTAGGTC | 1.02 ± 0.013
TGTATGGGAA | 0.9352 ± 0.0043
GCGGTCAGGG | 1.01 ± 0.016
ATATATTGAG | 0.995 ± 0.019
ATTTACGGGG | 1.04 ± 0.0031
TCAACGAATG | 0.994 ± 0.08
AGGGTGTGCT | 1.015 ± 0.0042
